The target of data set [1] is T1, TAM-AT1-AT2 Baz2B (Homo sapiens, UniProt Q9UIF8 721-884).
T1 sequence: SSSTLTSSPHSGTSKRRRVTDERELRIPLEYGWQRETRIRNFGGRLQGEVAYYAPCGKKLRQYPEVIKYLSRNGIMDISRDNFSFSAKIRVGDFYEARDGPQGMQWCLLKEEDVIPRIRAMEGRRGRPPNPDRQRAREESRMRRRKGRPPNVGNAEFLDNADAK
Description: EMSA; mutant series; EMSA: 20 mM HEPES pH 7.5, 30 mM KCl, 1 mM EDTA, 10 mM (NH4)2SO4, 1 mM DTT, 4 C, 10 nM probe; MST: same plus 0.1 ug/ml BSA, 5 nM probe, 25 C; GST-AT-hook and bromodomain EMSA as in cited refs. The settings on record: protein: recombinant; tags: His6; blunt.

For data set [2], the target named is T1, TAM-AT1-AT2 Baz2B. In words: EMSA; EMSA: 20 mM HEPES pH 7.5, 30 mM KCl, 1 mM EDTA, 10 mM (NH4)2SO4, 1 mM DTT, 4 C, 10 nM probe; MST: same plus 0.1 ug/ml BSA, 5 nM probe, 25 C; GST-AT-hook and bromodomain EMSA as in cited refs. The conditions noted are these: protein: recombinant; tags: His6; blunt.
Data set [3] deals with T2, TAM-AT1-AT2 Baz2B L766A (Homo sapiens, UniProt Q9UIF8 721-884, L766A).
T2 sequence: T1 sequence with L46A
Described as above. The settings on record: protein: recombinant; tags: His6; blunt.

The target in data set [4] is T3, TAM-AT1-AT2 Baz2B R760E (Homo sapiens, UniProt Q9UIF8 721-884, R760E).
T3 sequence: T1 sequence with R40E
Described as above. The conditions noted are these: protein: recombinant; tags: His6; blunt.

In data set [5] the target is T4, TAM Baz2B (Homo sapiens, UniProt Q9UIF8 721-843).
T4 sequence: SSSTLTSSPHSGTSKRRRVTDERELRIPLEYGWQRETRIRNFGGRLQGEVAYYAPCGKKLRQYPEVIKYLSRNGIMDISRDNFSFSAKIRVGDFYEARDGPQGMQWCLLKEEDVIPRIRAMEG
Described as above. The conditions noted are these: protein: recombinant; tags: His6; blunt.

In data set [6] the target is T5, TAM-AT1-AT2 Baz2B Q767A (Homo sapiens, UniProt Q9UIF8 721-884, Q767A).
T5 sequence: T1 sequence with Q47A
The description is as above. The settings on record: protein: recombinant; tags: His6; blunt.

Data set [7] concerns the target T6, TAM-AT1-AT2 Baz2B R765E (Homo sapiens, UniProt Q9UIF8 721-884, R765E).
T6 sequence: T1 sequence with R45E
The description is as above. The conditions noted are these: protein: recombinant; tags: His6; blunt.

Data set [8] deals with T7, TAM-AT1-AT2 Baz2B R781E (Homo sapiens, UniProt Q9UIF8 721-884, R781E).
T7 sequence: T1 sequence with R61E
Described as above. The settings on record: protein: recombinant; tags: His6; blunt.

In data set [9] the target is T8, TAM-AT1-AT2 Baz2B R837E (Homo sapiens, UniProt Q9UIF8 721-884, R837E).
T8 sequence: T1 sequence with R117E
The data set is described as above. The settings on record: protein: recombinant; tags: His6; blunt.

Data set [10] has as its target T9, BRD Brg1 (UniProt P51532 1453-1564). In words: EMSA; one pot with duplex and TFO; EMSA: 20 mM HEPES pH 7.5, 30 mM KCl, 1 mM EDTA, 10 mM (NH4)2SO4, 1 mM DTT, 4 C, 10 nM probe; MST: same plus 0.1 ug/ml BSA, 5 nM probe, 25 C; GST-AT-hook and bromodomain EMSA as in cited refs. The settings on record: protein: recombinant; tags: His6; triplex, third strand TFO.
Data set [11] concerns the target T10, BRD Baz2B (Homo sapiens, UniProt Q9UIF8 2060-2164).
T10 sequence: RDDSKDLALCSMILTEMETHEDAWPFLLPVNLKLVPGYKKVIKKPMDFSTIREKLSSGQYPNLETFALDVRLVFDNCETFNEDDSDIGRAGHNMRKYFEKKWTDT
Description: EMSA; up to 112 uM, one pot; EMSA: 20 mM HEPES pH 7.5, 30 mM KCl, 1 mM EDTA, 10 mM (NH4)2SO4, 1 mM DTT, 4 C, 10 nM probe; MST: same plus 0.1 ug/ml BSA, 5 nM probe, 25 C; GST-AT-hook and bromodomain EMSA as in cited refs. The conditions noted are these: protein: recombinant, tags: His6.

Data set [12] concerns the target T9, BRD Brg1. In words: EMSA; one pot with triplex and TFO; EMSA: 20 mM HEPES pH 7.5, 30 mM KCl, 1 mM EDTA, 10 mM (NH4)2SO4, 1 mM DTT, 4 C, 10 nM probe; MST: same plus 0.1 ug/ml BSA, 5 nM probe, 25 C; GST-AT-hook and bromodomain EMSA as in cited refs. The conditions noted are these: protein: recombinant; tags: His6; blunt.
Data set [13] concerns the target T11, GST-AT1-AT2 Baz2A (UniProt Q91YE5 641-674).
T11 chain: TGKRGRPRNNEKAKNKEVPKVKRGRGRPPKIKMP
In words: EMSA; 1.25 uM DNA, 3.6 or 14.4 uM protein; EMSA: 20 mM HEPES pH 7.5, 30 mM KCl, 1 mM EDTA, 10 mM (NH4)2SO4, 1 mM DTT, 4 C, 10 nM probe; MST: same plus 0.1 ug/ml BSA, 5 nM probe, 25 C; GST-AT-hook and bromodomain EMSA as in cited refs. The conditions noted are these: protein: recombinant; tags: GST; label: none (SybrSafe); blunt.

Data set [14] deals with T9, BRD Brg1. Description: EMSA; one pot with triplex and duplex; EMSA: 20 mM HEPES pH 7.5, 30 mM KCl, 1 mM EDTA, 10 mM (NH4)2SO4, 1 mM DTT, 4 C, 10 nM probe; MST: same plus 0.1 ug/ml BSA, 5 nM probe, 25 C; GST-AT-hook and bromodomain EMSA as in cited refs. The conditions noted are these: protein: recombinant; tags: His6.

Consider 5 molecules from article PMC10783490, “Biochemical and cellular insights into the Baz2B protein, a non-catalytic subunit of the chromatin remodeling complex” (Nucleic Acids Research, 2023).

Where a chain is given by its changes, count along the chain named.

T9 sequence (P51532 1453-1564): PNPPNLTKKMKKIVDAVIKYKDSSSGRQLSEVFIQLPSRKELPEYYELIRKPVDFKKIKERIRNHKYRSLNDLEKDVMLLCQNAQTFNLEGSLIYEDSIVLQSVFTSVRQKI

B1: 45 bp dsDNA FLP015/FLP016 (dsDNA)
DNA 1: ATCAGTTCTCCGGGTTGTCAGGTCGACCAGTTGTTCCTTTGAGGT
DNA 2: ACCTCAAAGGAACAACTGGTCGACCTGACAACCCGGAGAACTGAT
As for B1, the Kd was 116 ± 50.9 nM in data set [1]; 82.2 nM in data set [2]; 98.1 ± 29.5 nM in [3]; 93.6 ± 38.2 nM in [4]; 468 nM in [5]; 440 ± 256 nM in [6]. Besides, the Kd is 30.8 ± 6.9 nM in data set [7], 232 ± 101 nM in [8] and 108 ± 9.3 nM in [9].

B2: DNA triplex En3_D + TFO #5 (structured_DNA)
DNA 1: TCTTTTTTTTTTTTTTTCTTTTTTCCTCC
DNA 2: GGAGGAAAAAAGAAAAAAAAAAAAAAAGA
DNA 3: GGAGGAAAAAAGAAAAAAAAAAAAAAAGA
Turning to B2, the binding result in data set [10] is listed as “binds”; in data set [11] (triplex, third strand TFO), “no binding”.

B3: En3_D 29 bp dsDNA (dsDNA)
DNA 1: TCTTTTTTTTTTTTTTTCTTTTTTCCTCC
DNA 2: GGAGGAAAAAAGAAAAAAAAAAAAAAAGA
For the molecule B3, the binding result in data set [12] is reported as “binds”; in data set [11] (blunt) it was “no binding”.

B4: rDNA enhancer (En dsDNA) (dsDNA)
DNA 1: TGGATCTTTTTTTTTTTTTTTCTTTTTCCTCCA
DNA 2: TGGAGGAAAAAGAAAAAAAAAAAAAAAGATCCA
Turning to B4, the binding result in data set [13] is “binds”.
GGAGGAAAAAAGAAAAAAAAAAAAAAAGA (ssDNA) [TFO #5 (29 nt ssDNA)]: the binding result in data set [14] and in data set [11] was “no binding” throughout.
